The target in assay [1] is T1, SARS-CoV-2 spike receptor binding domain (RBD), recombinant (SARS-CoV-2, UniProt P0DTC2 319-541).
T1 construct: also called SARS-CoV-2 RBD; Spike RBD
As to the kind of experiment: SPR. The settings on record: both partners purified.

Assay [2] deals with T2, SARS-CoV-2 spike receptor binding domain (RBD), recombinant (SARS-CoV-2, UniProt P0DTC2).
T2 construct: also called SARS-CoV-2 RBD; Spike RBD
As to the kind of experiment: electrochemical titration (differential pulse voltammetry). The settings on record: both partners purified.

This note sets out measurements from paper PMC9126950, “SARS-CoV-2 detection using a nanobody-functionalized voltammetric device” (Communications Medicine, 2022).

A word on the Kd: it is the equilibrium constant for the complex coming apart.

B1: VHH-72-C13 (VHH)
VHH: QVQLQESGGGLVCAGGSLRLSCAASGRTFSEYAMGWFRQAPGKEREFVATISWSGGSTYYTDSVKGRFTISRDNAKNTVYLQMNSLKPDDTAVYYCAAAGLGTVVSEWDYDYDYWGQGTQVTVSS
notes: also called VHH-72-13C; VHH-C13
With B1, the Kd in assay [1] is 12.1 nM.

B2: VHH-72 (VHH)
VHH: QVQLQESGGGLVQAGGSLRLSCAASGRTFSEYAMGWFRQAPGKEREFVATISWSGGSTYYTDSVKGRFTISRDNAKNTVYLQMNSLKPDDTAVYYCAAAGLGTVVSEWDYDYDYWGQGTQVTVSS
Consider B2, for which, in assay [2], the Kd turned out to be 78 nM.
